Results as given in patent publication US20240366726A1 (Genentech, published 2024).

Legend:
[1] = target: human complement component 1q (C1q) (human, UniProt P02745 23-245; P02746 28-253; P02747 29-245); assay: BLI; tested as XENP24306+XENP32803
[2] = target: T1, human CD122/CD132 on lymphocytes (NK cells and CD8+ T cells in human PBMCs) (human, UniProt P31785 23-369); assay: cell-based or functional assay
T1 sequence 1: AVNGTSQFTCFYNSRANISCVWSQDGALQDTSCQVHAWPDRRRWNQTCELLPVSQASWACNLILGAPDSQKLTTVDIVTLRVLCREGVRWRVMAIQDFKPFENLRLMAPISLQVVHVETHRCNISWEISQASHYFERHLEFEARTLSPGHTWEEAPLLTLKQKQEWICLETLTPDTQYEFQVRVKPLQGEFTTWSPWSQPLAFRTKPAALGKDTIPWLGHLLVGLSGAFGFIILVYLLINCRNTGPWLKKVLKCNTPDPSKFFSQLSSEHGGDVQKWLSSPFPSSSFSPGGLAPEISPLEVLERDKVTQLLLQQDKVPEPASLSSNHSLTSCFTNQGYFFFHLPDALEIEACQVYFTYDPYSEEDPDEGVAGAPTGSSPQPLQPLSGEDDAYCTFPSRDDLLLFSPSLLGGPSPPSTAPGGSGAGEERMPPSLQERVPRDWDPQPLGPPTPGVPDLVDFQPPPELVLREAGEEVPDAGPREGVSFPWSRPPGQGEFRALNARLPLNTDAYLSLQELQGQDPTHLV
T1 sequence 2: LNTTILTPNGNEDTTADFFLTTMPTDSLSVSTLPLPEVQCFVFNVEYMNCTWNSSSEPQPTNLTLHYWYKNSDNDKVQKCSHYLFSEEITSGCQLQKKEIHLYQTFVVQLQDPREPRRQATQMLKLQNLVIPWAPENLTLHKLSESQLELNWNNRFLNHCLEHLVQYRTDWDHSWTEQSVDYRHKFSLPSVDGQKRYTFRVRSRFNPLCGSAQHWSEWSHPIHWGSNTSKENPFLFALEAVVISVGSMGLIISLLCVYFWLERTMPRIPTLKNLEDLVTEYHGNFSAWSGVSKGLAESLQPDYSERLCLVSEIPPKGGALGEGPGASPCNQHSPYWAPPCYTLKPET

[3] = target: T2, cynomolgus monkey CD122/CD132 on lymphocytes (NK cells and CD8+ T cells in cynomolgus monkey PBMCs) (cynomolgus monkey, UniProt Q38J85 27-551; A0A2K5VGJ6 23-369); assay: cell-based or functional assay
T2 sequence (looked up) 1: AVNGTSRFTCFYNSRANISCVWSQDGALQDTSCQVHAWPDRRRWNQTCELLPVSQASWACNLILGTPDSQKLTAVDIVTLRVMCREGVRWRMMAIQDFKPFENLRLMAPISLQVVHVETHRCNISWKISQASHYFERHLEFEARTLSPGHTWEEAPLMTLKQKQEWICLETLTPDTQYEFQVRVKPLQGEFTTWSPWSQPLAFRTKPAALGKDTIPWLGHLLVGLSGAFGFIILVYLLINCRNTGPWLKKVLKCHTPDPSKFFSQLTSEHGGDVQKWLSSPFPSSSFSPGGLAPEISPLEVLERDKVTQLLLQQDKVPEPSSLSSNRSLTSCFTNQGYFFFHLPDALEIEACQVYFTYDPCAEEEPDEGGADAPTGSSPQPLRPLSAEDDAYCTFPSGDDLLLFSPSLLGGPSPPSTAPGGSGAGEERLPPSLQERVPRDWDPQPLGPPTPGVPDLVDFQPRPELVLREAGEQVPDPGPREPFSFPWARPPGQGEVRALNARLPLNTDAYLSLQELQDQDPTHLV
T2 sequence (looked up) 2: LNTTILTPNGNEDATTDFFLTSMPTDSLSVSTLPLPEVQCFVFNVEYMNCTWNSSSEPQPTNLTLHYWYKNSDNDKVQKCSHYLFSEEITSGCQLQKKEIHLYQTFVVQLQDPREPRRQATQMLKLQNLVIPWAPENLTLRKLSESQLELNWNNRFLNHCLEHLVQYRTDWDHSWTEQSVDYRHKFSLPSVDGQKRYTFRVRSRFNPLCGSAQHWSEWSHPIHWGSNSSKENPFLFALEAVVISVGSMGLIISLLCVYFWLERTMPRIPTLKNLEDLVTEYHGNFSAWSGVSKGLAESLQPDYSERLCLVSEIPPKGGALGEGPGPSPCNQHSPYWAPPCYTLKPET

mouse FcRn = target: T3, mouse FcRn (mouse, UniProt Q61559 22-297; P01887 21-119); assay: Bio-Layer Interferometry, pH 6.0; tested as ~82%/~18% mixture
T3 construct: also called neonatal Fc receptor
T3 sequence (looked up): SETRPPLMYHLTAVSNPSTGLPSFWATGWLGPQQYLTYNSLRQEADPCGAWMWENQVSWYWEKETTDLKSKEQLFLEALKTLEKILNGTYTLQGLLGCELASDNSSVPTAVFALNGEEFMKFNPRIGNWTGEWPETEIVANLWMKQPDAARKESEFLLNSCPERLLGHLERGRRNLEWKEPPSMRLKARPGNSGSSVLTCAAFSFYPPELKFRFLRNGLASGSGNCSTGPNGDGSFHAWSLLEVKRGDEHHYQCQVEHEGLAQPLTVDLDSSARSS
T3 sequence (b2m, looked up): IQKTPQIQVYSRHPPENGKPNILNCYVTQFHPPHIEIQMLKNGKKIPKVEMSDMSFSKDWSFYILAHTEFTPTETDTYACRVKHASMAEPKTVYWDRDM

human FcRn = target: T4, human FcRn (human, UniProt P55899 24-297; P61769 21-119); assay: as above
T4 construct: also called neonatal Fc receptor

cynomolgus monkey FcRn = target: T5, cynomolgus monkey FcRn (cynomolgus monkey, UniProt Q8SPV9 24-297; Q8SPW0 21-119); assay: as above
T5 construct: also called neonatal Fc receptor
T5 sequence (Q8SPV9 24-297 limits assumed, chain 1 of 2): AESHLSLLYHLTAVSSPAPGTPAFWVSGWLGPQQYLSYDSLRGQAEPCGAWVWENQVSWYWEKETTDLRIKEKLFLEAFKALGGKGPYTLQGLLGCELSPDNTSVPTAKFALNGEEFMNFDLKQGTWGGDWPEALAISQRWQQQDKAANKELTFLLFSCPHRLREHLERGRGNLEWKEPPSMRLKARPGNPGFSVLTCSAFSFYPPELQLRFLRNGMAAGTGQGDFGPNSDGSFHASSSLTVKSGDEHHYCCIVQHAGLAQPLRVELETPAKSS
T5 sequence (Q8SPW0 21-119 limits assumed, chain 2 of 2): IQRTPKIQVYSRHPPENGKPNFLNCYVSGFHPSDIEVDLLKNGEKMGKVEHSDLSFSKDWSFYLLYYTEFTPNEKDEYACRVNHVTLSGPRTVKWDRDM

Sequence of human complement component 1q (C1q) (P02745 23-245 limits assumed, chain 1 of 3): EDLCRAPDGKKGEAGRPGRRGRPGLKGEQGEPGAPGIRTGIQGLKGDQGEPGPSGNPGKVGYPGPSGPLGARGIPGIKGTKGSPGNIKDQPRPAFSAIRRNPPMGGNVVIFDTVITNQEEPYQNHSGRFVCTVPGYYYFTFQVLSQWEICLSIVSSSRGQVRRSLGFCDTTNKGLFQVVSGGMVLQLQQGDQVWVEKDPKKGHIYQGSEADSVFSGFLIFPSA
Sequence of human complement component 1q (C1q) (P02746 28-253 limits assumed, chain 2 of 3): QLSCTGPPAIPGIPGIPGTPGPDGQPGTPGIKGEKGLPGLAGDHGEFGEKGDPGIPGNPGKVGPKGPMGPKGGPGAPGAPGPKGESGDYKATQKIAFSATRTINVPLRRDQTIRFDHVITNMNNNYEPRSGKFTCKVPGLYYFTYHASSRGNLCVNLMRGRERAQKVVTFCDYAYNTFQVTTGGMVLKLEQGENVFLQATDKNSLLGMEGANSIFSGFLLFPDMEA
Sequence of human complement component 1q (C1q) (P02747 29-245 limits assumed, chain 3 of 3): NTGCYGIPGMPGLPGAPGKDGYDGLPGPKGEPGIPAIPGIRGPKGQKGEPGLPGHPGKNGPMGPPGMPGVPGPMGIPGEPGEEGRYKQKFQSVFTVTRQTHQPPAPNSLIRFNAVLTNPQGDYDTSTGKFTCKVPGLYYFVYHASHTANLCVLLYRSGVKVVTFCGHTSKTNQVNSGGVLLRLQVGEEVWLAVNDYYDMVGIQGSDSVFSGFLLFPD
T4 sequence (P55899 24-297 limits assumed, chain 1 of 2): as the sequence (Q8SPV9 24-297 limits assumed, chain 1 of 2) above, with D39N, Q44E, S99G, G189S, N190S, M217L, T269S counted along it
T4 sequence (P61769 21-119 limits assumed, chain 2 of 2): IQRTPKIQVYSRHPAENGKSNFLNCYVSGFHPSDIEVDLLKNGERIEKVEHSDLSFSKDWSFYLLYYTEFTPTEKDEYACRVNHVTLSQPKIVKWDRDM

Binder | binding result [1] | EC50 of human CD8+ T cell proliferation (Ki67+) in human PBMCs [2] [µg/mL] | EC50 of human NK-cell proliferation (Ki67+) in human PBMCs [2] [µg/mL] | potency on human CD8+ terminal effector T cells (Ki67 proliferation), fold lower than recombinant wild-type IL-15 [2] [fold] | potency on human CD8+ terminal effector T cells (Ki67 proliferation), fold lower than wild-type IL-15/wild-type IL-15Rα heterodimer Fc fusion XENP22853 [2] [fold] | EC50 of CD8+ T cell proliferation in cynomolgus monkey PBMCs [3] [µg/mL] | EC50 of NK-cell proliferation in cynomolgus monkey PBMCs [3] [µg/mL] | binding result (mouse FcRn) | binding result (human FcRn) | binding result (cynomolgus monkey FcRn)
XENP24306 (Fc fusion, Never tested alone: every experiment used a combination of XENP24306 (~82%) and XENP32803 (~18%); Each result of the combination is written once for each of the two proteins; also called IL15/IL15Rα heterodimeric protein; XENP24306+XENP32803 (about 82% of the tested combination); copies: 1 + 1) chain 1: NWVNVISDLKKIEDLIQSMHIDATLYTESNVHPSCKVTAMKCFLLELQVISLESGDASIHDTVQDLIILANNSLSSNGNVTESGCKECEELEEKNIKEFLQSFVHIVQMFINTSGGGGSEPKSSDKTHTCPPCPAPPVAGPSVFLFPPKPKDTLMISRTPEVTCVVVDVKHEDPEVKFNWYVDGVEVHNAKTKPREEEYNSTYRVVSVLTVLHQDWLNGKEYKCKVSNKALPAPIEKTISKAKGQPREPQVYTLPPSREEMTKNQVSLTCDVSGFYPSDIAVEWESDGQPENNYKTTPPVLDSDGSFFLYSKLTVDKSRWEQGDVFSCSVLHEALHSHYTQKSLSLSPGK chain 2: ITCPPPMSVEHADIWVKSYSLYSRERYICNSGFKRKAGTSSLTECVLNKATNVAHWTTPSLKCIRGGGGSEPKSSDKTHTCPPCPAPPVAGPSVFLFPPKPKDTLMISRTPEVTCVVVDVKHEDPEVKFNWYVDGVEVHNAKTKPREEQYNSTYRVVSVLTVLHQDWLNGKEYKCKVSNKALPAPIEKTISKAKGQPREPQVYTLPPSREQMTKNQVKLTCLVKGFYPSDIAVEWESNGQPENNYKTTPPVLDSDGSFFLYSKLTVDKSRWQQGNVFSCSVLHEALHSHYTQKSLSLSPGK | no binding | 12.7 | 1.2 | ~900 | ~400 | 3.8 | 0.5 | binds | binds | binds
XENP32803 (Fc fusion, Never tested alone: every experiment used a combination of XENP24306 (~82%) and XENP32803 (~18%); Each result of the combination is written once for each of the two proteins; also called IL15/IL15Rα heterodimeric protein; XENP24306+XENP32803 (about 18% of the tested combination); copies: 1 + 1) chain 1: NWVNVISDLKKIEDLIQSMHIDATLYTESNVHPSCKVTAMKCFLLELQVISLESGDASIHDTVQDLIILANNSLSSNGNVTESGCKECEELEEKNIKEFLQSFVHIVQMFINTSGGGGSEPKSSDKTHTCPPCPAPPVAGPSVFLFPPKPKDTLMISRTPEVTCVVVDVKHEDPEVKFNWYVDGVEVHNAKTKPREEEYNSTYRVVSVLTVLHQDWLNGKEYKCKVSNKALPAPIEKTISKAKGQPREPQVYTLPPSREEMTKNQVSLTCDVSGFYPSDIAVEWESDGQPENNYKTTPPVLDSDGSFFLYSKLTVDKSRWEQGDVFSCSVLHEALHSHYTQKSLSLSPGK chain 2: ITCPPPMSVEHADIWVKSYSLYSRERYICNSGFKRKAGTSSLTECVLNKATNVAHWTTPSLKCIRGGGGSEPKSSDKTHTCPPCPAPPVAGPSVFLFPPTPKDTLMISRTPEVTCVVVDVKHEDPEVKFNWYVDGVEVHNAKTKPREEQYNSTYRVVSVLTVLHQDWLNGKEYKCKVSNKALPAPIEKTISKAKGQPREPQVYTLPPSREQMTKNQVKLTCLVKGFYPSDIAVEWESNGQPENNYKTTPPVLDSDGSFFLYSKLTVDKSRWQQGNVFSCSVLHEALHSHYTQKSLSLSPGK | no binding | 12.7 | 1.2 | ~900 | ~400 | 3.8 | 0.5 | binds | binds | binds
